Target: T1, rMuIL15Ra (murine IL-15 receptor R&D Systems) (murine), Q60819
T1 chain: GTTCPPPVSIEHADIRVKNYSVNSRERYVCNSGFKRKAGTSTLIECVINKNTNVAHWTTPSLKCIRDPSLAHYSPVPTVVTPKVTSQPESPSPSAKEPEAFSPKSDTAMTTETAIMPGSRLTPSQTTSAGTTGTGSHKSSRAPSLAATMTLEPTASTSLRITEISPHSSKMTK
Test: BLI (ForteBio), biotinylated rMuIL15Ra on SA biosensors, rMuIL15 in solution, 1:1 fit
Details: remark: other sources report otherwise

- Kd: 5.57 nM
B1: rMuIL15 (R&D Systems), P48346 49-162 (ligand, murine, UniProt P48346 49-162, looked up)
chain: NWIDVRYDLEKIESLIQSIHIDTTLYTDSDFHPSCKVTAMNCFLLELQVILHEYSNMTLNETVRNVLYLANSTLSSNKNVAESGCKECEELEEKTFTEFLQSFIRIVQMFINTS
modifications: here or on the partner: biotinylated with EZ-Link NHS-LC-Biotin (sites not given)
